Here are results for 3 molecules from US20240182563A1 (GENOME, published 2024).

Substitutions are numbered along the chain they refer to. Where only a bound is given, the exact number is not on record here.

The target in one assay is T1, human CNTN4-10xHis (human, UniProt Q8IWV2 19-1000).
T1 sequence: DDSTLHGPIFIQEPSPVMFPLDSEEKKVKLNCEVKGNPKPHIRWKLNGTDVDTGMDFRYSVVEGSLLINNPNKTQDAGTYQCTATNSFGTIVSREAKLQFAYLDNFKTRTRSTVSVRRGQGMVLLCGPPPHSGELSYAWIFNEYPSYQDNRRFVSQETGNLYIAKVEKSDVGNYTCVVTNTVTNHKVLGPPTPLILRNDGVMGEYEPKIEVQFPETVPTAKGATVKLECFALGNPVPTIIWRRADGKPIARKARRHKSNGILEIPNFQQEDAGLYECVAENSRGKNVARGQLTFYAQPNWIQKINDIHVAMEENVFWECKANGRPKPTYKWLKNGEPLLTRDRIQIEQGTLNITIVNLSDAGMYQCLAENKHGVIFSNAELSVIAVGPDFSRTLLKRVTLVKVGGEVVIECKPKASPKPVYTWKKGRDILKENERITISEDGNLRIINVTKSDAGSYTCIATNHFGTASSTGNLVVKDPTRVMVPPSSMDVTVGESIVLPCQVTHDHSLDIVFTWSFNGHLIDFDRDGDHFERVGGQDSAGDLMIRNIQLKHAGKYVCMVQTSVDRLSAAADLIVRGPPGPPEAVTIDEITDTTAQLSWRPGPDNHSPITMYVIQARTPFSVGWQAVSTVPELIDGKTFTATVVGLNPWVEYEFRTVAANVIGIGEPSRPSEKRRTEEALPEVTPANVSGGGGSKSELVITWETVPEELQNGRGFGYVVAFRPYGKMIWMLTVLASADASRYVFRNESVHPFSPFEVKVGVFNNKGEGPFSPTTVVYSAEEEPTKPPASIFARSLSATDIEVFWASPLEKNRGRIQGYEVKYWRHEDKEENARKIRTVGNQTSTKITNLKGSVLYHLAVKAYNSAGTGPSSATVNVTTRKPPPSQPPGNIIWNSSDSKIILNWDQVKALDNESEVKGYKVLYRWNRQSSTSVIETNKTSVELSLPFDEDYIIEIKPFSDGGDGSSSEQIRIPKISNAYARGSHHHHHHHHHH
The assay can be described thus: ELISA, plate coated with CNTN4-10xHis, anti-human Fc-HRP. The method, then:
(§1) The LAH2, L1H2, and L2H2 antibodies prepared in Example 3.1 were subjected to an ELISA test together with A-01. An ELISA plate was coated with 200 ng of antigens (human CNTN4-10xHis or mouse CNTN4-10xHis). For antibody binding, antibodies were serially diluted from a maximum of 1 μM to 0.0001 nM, thereby binding to the antigen. Anti-human Fc-HRP was used as a secondary antibody for antibody detection. Color was developed using ABTS, which is a color developing reagent, and the absorbance at 405 nm was measured.
In general terms: In an ELISA, binding on a coated surface is turned into a signal by an enzyme label.

The target in another assay is T2, mouse CNTN4-10xHis (mouse, UniProt Q69Z26 19-1000).
T2 sequence: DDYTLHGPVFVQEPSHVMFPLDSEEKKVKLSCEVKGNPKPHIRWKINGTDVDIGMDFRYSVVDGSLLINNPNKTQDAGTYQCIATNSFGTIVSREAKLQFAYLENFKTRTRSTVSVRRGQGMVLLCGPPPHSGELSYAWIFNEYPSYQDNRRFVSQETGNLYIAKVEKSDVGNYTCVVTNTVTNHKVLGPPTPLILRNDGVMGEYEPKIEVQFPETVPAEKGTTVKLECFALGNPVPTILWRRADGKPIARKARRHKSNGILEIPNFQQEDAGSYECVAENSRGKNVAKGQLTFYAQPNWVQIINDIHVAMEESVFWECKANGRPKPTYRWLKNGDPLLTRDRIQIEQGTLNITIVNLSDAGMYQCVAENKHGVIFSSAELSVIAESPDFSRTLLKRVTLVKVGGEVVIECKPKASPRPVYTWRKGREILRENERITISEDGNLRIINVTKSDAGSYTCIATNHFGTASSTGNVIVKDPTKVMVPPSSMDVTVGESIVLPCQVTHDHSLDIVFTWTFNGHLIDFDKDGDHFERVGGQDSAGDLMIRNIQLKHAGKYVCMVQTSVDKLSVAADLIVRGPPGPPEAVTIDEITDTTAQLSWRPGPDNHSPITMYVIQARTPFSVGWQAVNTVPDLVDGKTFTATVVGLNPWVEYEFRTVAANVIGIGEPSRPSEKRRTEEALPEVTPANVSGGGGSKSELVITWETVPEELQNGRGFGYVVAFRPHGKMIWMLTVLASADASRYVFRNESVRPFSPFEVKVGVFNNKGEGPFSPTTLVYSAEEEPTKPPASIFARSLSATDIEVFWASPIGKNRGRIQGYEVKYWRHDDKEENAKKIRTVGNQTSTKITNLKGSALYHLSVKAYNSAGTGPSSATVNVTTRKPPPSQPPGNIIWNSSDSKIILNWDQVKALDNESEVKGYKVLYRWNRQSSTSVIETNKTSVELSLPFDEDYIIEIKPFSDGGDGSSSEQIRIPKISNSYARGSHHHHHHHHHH
Described as above. The method, then: as §1

For another assay, the target named is T3, Human CNTN-4 protein (human, UniProt Q8IWV2 19-1000, limits assumed).
T3 construct: soluble antigen run over the captured antibody; also called human CNTN4 (SPR analyte)
T3 sequence (looked up): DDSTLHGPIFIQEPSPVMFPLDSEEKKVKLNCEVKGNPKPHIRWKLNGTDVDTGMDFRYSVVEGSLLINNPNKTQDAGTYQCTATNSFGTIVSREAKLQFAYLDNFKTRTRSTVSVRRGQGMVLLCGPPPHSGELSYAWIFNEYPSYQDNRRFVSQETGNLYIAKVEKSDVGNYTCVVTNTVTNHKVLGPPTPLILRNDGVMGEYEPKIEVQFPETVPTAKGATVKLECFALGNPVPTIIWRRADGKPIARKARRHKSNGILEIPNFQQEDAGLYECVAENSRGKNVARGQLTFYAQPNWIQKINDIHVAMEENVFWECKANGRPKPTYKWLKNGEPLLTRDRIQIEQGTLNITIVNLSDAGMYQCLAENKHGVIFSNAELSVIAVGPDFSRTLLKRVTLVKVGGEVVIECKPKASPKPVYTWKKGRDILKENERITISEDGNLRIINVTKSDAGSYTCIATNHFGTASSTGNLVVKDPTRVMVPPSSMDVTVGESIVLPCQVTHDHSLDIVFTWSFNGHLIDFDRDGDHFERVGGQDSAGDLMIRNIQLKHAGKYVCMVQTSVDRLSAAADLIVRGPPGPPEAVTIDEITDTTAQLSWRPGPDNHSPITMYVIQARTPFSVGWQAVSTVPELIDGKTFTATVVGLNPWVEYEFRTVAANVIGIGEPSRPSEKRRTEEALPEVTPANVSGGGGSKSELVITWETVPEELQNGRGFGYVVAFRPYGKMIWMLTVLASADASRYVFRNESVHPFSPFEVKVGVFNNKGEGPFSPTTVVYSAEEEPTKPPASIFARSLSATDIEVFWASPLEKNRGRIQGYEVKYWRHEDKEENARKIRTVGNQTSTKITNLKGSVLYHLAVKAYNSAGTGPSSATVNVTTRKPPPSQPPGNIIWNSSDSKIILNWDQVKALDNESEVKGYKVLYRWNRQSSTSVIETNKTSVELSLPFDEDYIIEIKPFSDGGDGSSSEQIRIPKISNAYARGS
The assay can be described thus: SPR, antibody captured by anti-human IgG Fc on CM5 chip, CNTN4 as analyte. The procedure:
An SPR test was performed on L1H2, which is most humanized at about 98%, among the antibodies prepared in Example 3.1. More specifically, in order to bind anti-human IgG Fc (capture antibody) using amine coupling, CM5 chip was mounted, running buffer was allowed to flow, the chip was activated, and then capture antibody was attached thereto. Dextrin to which capture antibody was not attached was deactivated using ethanolamine, and then regeneration was performed using 3M magnesium chloride to clear analyte except capture antibody. The L1H2 prepared at a concentration of 0.05 μg/mL was allowed to flow for 30 seconds at a rate of 10 μL/min for binding. Thereafter, human CNTN4 (400 nM to 0.78 nM) prepared by sequential dilution as an antigen was allowed to flow at a rate of 30 μL/min for 3 minutes to be bound, and dissociation was performed for 5 minutes. Then, in order to clear all analytes attached to the capture antibody, a regeneration solution (3M magnesium chloride) was allowed to flow at a rate of 20 μL/min for 30 seconds, and regeneration was performed. For each concentration of antigen, binding of L1H2, binding of antigen, dissociation, and regeneration were repeated in order.

B1: anti-CNTN4 humanized antibody LAH2 (antibody, V domains shown)
VH: EVQLLESEGGLVQPGGSLRLSCAASGFTFSSFNMFWVRQAPGKGLEWVAEISGGGGSTWYAPAVKGRATISRDNSKNTVYLQMNSLRAEDTAVYYCAKSADTWSYGAATIDAWGQGTLVTVSS
VL: ALTQPSSVSANLGETVKITCSGSSGSYGWYQQKSPGSAPVTLIYDNTNRPSDIPSRFSGSGSGSTGTLTITGVRAEDEAVYYCGGYDGSTDVFGAGTTLTVL
notes: in the form of IgG4
What is called EC50 is the concentration that produces a half-maximal response. In the case of B1, the EC50 in the assay with human CNTN4-10xHis and with mouse CNTN4-10xHis was 0.017 nM each time.

B2: anti-CNTN4 humanized antibody L1H2 (antibody, V domains shown)
VH: B1 VH
VL: ELTQDPAVSVALGQTVRITCSGSSGSYGWYQQKPGQAPVLVIYDNTNRPSGIPDRFSGSSSGNTASLTITGAQAEDEADYYCGGYDGSTDVFGGGTKLTVL
notes: in the form of IgG4
One may read the Kd as a measure of binding affinity in units of concentration. High values mean weaker binding, low ones tighter binding. Take B2: in the assay with human CNTN4-10xHis, a half-maximal response (EC50) required 0.028 nM and the “fold difference in binding ability against A-01” value was no more than 3 times. Moreover, in the assay with mouse CNTN4-10xHis, the EC50 turned out to be 0.029 nM and the “fold difference in binding ability against A-01” value was no more than 3 times. In addition, the Kd with Human CNTN-4 protein was determined as 93.2 nM.

B3: anti-CNTN4 humanized antibody L2H2 (antibody, V domains shown)
VH: B1 VH
VL: B2 VL with L40T, V41L, N63S, A65G
notes: in the form of IgG4
Turning to B3, the EC50 with human CNTN4-10xHis was 0.018 nM; with mouse CNTN4-10xHis, 0.019 nM.
